Reference: US6593098 (FOX CHASE CANCER CENTER, dated 2003)

Tests used:
[1] = target: T1, human BUB1A kinase (human, UniProt O60566 1-1050, hyperphosphorylated in mitotically arrested cells (P-ser and P-thr the major phosphoamino acids; positions not given)); assay: specificity test, method not named in the sentence (probably yeast two-hybrid)
T1 construct: Endogenous huBUB1A immunoprecipitated or blotted from Hela lysates; also called huBUB1A; hUBUB1A

[2] = target: T2, CENP-E (human, UniProt Q02224 1-2698, limits assumed); assay: as above
T2 construct: Endogenous Hela protein in the immunoprecipitations; also called CENP-E kinetochore motor; endogenous CENP-E
T2 sequence (Q02224 1-2698 limits assumed): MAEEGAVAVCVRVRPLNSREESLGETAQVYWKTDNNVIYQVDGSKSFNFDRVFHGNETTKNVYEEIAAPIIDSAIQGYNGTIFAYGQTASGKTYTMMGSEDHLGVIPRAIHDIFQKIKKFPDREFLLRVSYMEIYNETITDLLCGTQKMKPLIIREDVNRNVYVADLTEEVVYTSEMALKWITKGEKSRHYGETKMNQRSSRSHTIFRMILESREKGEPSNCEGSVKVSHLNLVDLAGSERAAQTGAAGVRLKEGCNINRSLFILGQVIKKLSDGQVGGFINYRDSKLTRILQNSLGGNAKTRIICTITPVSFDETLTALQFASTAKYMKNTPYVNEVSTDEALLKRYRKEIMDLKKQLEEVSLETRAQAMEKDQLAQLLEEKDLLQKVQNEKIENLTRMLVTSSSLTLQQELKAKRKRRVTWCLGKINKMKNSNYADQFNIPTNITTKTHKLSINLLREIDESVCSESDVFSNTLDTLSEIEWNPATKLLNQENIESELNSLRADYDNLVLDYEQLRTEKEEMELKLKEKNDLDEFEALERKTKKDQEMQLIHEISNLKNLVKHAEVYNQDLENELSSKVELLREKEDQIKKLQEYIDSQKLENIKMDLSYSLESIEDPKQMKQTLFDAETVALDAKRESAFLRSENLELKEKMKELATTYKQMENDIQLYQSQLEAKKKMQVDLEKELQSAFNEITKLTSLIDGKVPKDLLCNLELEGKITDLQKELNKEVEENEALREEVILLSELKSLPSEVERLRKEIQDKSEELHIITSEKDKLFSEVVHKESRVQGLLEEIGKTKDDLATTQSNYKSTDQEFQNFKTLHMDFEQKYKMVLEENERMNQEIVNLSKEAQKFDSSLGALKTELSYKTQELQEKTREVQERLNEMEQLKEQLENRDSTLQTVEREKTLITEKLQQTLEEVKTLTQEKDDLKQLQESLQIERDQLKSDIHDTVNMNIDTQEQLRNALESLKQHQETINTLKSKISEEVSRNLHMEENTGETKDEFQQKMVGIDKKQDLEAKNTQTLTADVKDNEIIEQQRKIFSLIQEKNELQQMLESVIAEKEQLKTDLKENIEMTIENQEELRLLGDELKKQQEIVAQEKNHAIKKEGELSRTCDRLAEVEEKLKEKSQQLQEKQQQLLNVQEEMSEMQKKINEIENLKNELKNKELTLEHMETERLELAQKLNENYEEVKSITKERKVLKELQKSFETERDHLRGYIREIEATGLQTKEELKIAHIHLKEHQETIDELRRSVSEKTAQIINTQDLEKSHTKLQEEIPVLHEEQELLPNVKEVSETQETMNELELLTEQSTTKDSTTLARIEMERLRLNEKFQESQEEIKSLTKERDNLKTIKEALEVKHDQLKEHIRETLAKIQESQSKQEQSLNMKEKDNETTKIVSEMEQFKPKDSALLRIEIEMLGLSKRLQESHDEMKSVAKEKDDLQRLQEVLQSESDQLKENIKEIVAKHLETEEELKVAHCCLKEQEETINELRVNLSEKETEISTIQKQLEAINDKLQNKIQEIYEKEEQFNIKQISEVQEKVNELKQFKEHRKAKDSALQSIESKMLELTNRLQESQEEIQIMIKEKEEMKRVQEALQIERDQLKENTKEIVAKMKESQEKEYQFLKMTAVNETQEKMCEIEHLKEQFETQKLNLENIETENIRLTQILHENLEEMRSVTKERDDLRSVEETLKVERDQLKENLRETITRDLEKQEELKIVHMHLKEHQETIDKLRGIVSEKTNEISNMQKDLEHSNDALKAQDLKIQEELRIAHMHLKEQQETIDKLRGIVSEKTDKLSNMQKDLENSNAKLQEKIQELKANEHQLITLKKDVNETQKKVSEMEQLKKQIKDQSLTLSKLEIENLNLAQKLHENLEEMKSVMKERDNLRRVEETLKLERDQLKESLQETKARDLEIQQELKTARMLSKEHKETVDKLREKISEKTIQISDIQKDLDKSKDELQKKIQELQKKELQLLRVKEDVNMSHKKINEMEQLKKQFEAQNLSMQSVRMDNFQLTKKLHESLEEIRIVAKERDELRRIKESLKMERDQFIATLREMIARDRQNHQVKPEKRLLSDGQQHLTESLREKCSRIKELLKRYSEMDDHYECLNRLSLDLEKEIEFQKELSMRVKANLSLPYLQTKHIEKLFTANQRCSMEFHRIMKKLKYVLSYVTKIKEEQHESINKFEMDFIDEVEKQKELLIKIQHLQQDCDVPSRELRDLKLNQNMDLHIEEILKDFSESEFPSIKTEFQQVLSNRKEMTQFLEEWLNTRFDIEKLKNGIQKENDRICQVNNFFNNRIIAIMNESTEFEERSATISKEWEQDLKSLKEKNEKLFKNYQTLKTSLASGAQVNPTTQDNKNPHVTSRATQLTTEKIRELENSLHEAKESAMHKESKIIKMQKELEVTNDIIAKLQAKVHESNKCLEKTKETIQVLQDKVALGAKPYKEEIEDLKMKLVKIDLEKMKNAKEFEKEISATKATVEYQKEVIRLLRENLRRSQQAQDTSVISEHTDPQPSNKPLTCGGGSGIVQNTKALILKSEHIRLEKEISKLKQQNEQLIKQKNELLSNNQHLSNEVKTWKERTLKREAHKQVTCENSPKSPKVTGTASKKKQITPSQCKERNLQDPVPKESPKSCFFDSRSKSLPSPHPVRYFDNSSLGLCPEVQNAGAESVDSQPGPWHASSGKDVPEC

T1 sequence (O60566 whole entry R349Q/E1018K): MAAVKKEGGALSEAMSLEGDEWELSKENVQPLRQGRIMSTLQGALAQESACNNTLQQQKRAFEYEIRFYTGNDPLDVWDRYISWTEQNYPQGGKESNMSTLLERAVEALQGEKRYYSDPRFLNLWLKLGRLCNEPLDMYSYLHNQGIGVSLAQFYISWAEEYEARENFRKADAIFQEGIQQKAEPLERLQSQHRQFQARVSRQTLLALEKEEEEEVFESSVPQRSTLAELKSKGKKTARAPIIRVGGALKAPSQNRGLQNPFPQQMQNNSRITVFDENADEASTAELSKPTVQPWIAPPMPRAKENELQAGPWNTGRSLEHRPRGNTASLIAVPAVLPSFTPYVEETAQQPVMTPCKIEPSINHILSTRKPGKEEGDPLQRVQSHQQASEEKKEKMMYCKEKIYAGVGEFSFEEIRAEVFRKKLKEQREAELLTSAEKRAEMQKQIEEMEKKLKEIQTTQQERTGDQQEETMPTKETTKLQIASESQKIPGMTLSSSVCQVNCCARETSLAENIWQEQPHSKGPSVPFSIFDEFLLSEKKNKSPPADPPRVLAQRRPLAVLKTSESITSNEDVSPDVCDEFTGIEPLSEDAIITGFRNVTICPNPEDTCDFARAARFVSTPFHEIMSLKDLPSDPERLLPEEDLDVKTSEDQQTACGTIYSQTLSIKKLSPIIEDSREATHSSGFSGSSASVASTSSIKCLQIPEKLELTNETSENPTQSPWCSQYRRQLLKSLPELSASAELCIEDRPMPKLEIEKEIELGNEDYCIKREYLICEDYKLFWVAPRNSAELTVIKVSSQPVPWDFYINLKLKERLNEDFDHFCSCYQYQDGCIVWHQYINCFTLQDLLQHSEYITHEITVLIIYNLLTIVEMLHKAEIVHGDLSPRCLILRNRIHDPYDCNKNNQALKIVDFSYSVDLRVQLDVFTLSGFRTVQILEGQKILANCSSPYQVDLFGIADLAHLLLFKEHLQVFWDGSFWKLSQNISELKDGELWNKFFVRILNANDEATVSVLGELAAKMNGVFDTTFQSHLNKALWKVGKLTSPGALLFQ

binding result [1]	binding result [2]	Binder
no binding	–	CENP-F (other, UniProt P49454 2542-3114, looked up) SQVEGEHQLWKEQNLELRNLTVELEQKIQVLQSKNASLQDTLEVLQSSYKNLENELELTKMDKMSFVEKVNKMTAKETELQREMHEMAQKTAELQEELSGEKNRLAGELQLLLEEIKSSKDQLKELTLENSELKKSLDCMHKDQVEKEGKVREEIAEYQLRLHEAEKKHQALLLDTNKQYEVEIQTYREKLTSKEECLSSQKLEIDLLKSSKEELNNSLKATTQILEELKKTKMDNLKYVNQLKKENERAQGKMKLLIKSCKQLEEEKEILQKELSQLQAAQEKQKTGTVMDTKVDELTTEIKELKETLEEKTKEADEYLDKYCSLLISHEKLEKAKEMLETQVAHLCSQQSKQDSRGSPLLGPVVPGPSPIPSVTEKRLSSGQNKASGKRQRSSGIWENGRGPTPATPESFSKKSKKAVMSGIHPAEDTEGTEFEPEGLPEVVKKGFADIPTGKTSPYILRRTTMATRTSPRLAAQKLALSPLSLGKENLAESSKPTAGGSRSQKVKVAQRSPVDSGTILREPTTKSVPVNNLPERSPTDSPREGLRVKRGRLVPSPKAGLESNGSENCKVQ
–	no binding	human BUB1B kinase (enzyme, Endogenous protein in the immunoprecipitations; also called huBUB1B) MDTPENVLQMLEAHMQSYKGNDPLGEWERYIQWVEENFPENKEYLITLLEHLMKEFLDKKKYHNDPRFISYCLKFAEYNSDLHQFFEFLYNHGIGTLSSPLYIAWAGHLEAQGELQHASAVLQRGIQNQAEPREFLQQQYRLFQTRLTETHLPAQARTSEPLHNVQVLNQMITSKSNPGNNMACISKNQGSELSGVISSACDKESNMERRVITISKSEYSVHSSLASKVDVEQVVMYCKEKLIRGESEFSFEELRAQKYNQRRKHEQWVNEDRHYMKRKEANAFEEQLLKQKMDELHKKLHQVVETSHEDLPASQERSEVNPARMGPSVGSQQELRAPCLPVTYQQTPVNMEKNPREAPPVVPPLANAISAALVSPATSQSIAPPVPLKAQTVTDSMFAVASKDAGCVNKSTHEFKPQSGAEIKEGCETHKVANTSSFHTTPNTSLGMVQATPSKVQPSPTVHTKEALGFIMNMFQAPTLPDISDDKDEWQSLDQNEDAFEAQFQKNVRSSGAWGVNKIISSLSSAFHVFEDGNKENYGLPQPKNKPTGARTFGERSVSRLPSKPKEEVPHAEEFLDDSTVWGIRCNKTLAPSPKSPGDFTSAAQLASTPFHKLPVESVHILEDKENVVAKQCTQATLDSCEENMVVPSRDGKFSPIQEKSPKQALSSHMYSASLLRLSQPAAGGVLTCEAELGVEACRLTDTDAAIAEDPPGSAAIAEDPPDAIAGLQAEWMQMSSLGTVDAPNFIVGNPWDDKLIFKLLSGLSKPVSSYPNTFEWQCKLPAIKPKTEFQLGSKLVYVHHLLGEGAFAQVYEATQGDLNDAKNKQKFVLKVQKPANPWEFYIGTQLMERLKPSMQHMFMKFYSAHLFQNGSVLVGELYSYGTLLNAINLYKNTPEKVMPQGLVISFAMRMLYMIEQVHDCEIIHGDIKPDNFILGNGFLEQDDEDDLSAGLALIDLGQSIDMKLFPKGTIFTAKCETSGFQCVEMLSNKPWNYQIDYFGVAATVYCMLFGTYMKVKNEGGECKPEGLFRRLPHLDMWNEFFHVMLNIPDCHHLPSLDLLRQKLKKVFQQHYTNKIRALRNRLIVLLLECKRSRK
